Experimental findings from US20150266954A1 (Eli Lilly, published 2015) are described below.

Numbering of substitutions follows the chain as printed. Names may count otherwise.

Test [1] has as its target T1, human IL-21 (human, UniProt Q9HBE4 32-162). In words: cell-based or functional assay.
The target of test [2] is T2, cynomolgus monkey IL-21 (cynomolgus monkey, UniProt Q9HBE4 32-162 (human entry)). Kind of test: cell-based or functional assay.
Test [3] addresses T3, human IL-4 (human, UniProt P05112 25-153).
T3 sequence (looked up): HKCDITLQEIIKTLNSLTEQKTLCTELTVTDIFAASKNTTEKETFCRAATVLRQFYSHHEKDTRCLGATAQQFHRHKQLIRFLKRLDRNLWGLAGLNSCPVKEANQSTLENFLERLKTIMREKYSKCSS
In words: ELISA, Ab327 captured on plate, biotinylated cytokine. The method, then:
(§1) The objective of this study was to determine the binding specificity of Ab327 to human IL-21 as compared with the other members of the common-gamma (γc) chain receptor cytokines. The cytokine receptor γc-chain family consists of six members, IL-2, IL-4, IL-7, IL-9, IL-15, and IL-21. All members of this family signal through receptor complexes that contain the γc subunit. The specificity of Ab327 for binding to other human γc chain cytokine family members was determined using an ELISA. Briefly, Ab327 was captured on an ELISA plate coated with goat anti-human kappa IgG. Cytokines labeled with biotin titrated from 100 nM-780 pM were then added to the plate for 1 hour at 37° C. and any bound cytokine was detected using Neutravidin labeled with alkaline phosphatase. Commercially available mouse monoclonal antibody to IL-2 and goat polyclonal antibodies to IL-4, IL-7, IL-9 and IL-15 captured with donkey anti-goat IgG gave positive signals after binding the biotinylated cytokines and detection with Neutravidin.
(ELISA stands for enzyme-linked immunosorbent assay.)

In test [4] the target is T4, human IL-7 (human, UniProt P13232 26-177).
T4 sequence (looked up): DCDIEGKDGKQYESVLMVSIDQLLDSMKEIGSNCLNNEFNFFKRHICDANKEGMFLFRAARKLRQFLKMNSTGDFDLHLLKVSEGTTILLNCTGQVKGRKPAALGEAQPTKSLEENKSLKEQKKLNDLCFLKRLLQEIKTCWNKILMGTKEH
Described as above. Here is the method: as §1

Test [5] deals with human IL-2 (human, UniProt P60568 21-153). Described as above. Here is the method:
as §1

Test [6] deals with human IL-15 (human, UniProt P40933 49-162). The description is as above. The method, then: as §1
Chain of human IL-15 (P40933 49-162 limits assumed): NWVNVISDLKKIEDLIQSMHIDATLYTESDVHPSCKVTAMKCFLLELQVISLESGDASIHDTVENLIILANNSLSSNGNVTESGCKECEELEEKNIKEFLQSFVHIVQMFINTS
Test [7] has as its target human IL-9 (human, UniProt P15248 19-144). The test is described as above. Here is the method: as §1
In test [8] the target is T1, human IL-21. In words: cell-based or functional assay. The source holds these as a separate data set.
For test [9], the target named is T1, human IL-21. Kind of test: KinExA solution equilibrium binding, 37 C, n=3. The method, then:
(§2) Ab327 is an engineered, humanized monoclonal IgG4 antibody that binds and neutralizes human IL-21. The purpose of this study was to determine the binding affinity of Ab327 for human, cynomolgus monkey, mouse, rat, and rabbit IL-21 (the sequences are given below). […] KinExA solution equilibrium binding experiments were performed using a fixed antibody concentration protocol and 2-fold serial dilutions of IL-21. Samples were equilibrated at 37° C. for 6-36 hours prior to analysis. Free antibody in the equilibrated samples was detected using a Dylight 649-conjugated anti-human IgG Fc polyclonal antibody. The resulting percent free antibody versus antigen concentration data were fit to an “affinity, standard” binding model using the KinExA Pro software, and the best fit binding affinity value (KD) was determined
(§3) The average KD from three independent experiments along with the standard deviation (human, cynomolgus monkey, mouse, and rat) or from a single determination (rabbit IL-21) is summarized in Table 3 below (apparent solution equilibrium binding affinity (KD) of Ab327).
Background: In KinExA the mixture passes briefly over coated beads that capture the unbound partner.

In test [10] the target is mouse IL-21 (mouse, UniProt Q9ES17 18-146). Kind of test: KinExA solution equilibrium binding, 37 C, n=3. Here is the method:
as §2, §3

Test [11] has as its target T2, cynomolgus monkey IL-21. Kind of test: KinExA solution equilibrium binding, 37 C, n=3. Here is the method:
as §2, §3

Test [12] concerns the target rat IL-21 (rat, UniProt A3QPB9 18-146). In words: KinExA solution equilibrium binding, 37 C, n=3. Here is the method: as §2, §3
The target of test [13] is T1, human IL-21. Kind of test: cell-based or functional assay. The source holds these as a separate data set.
For test [14], the target named is T2, cynomolgus monkey IL-21. Kind of test: assay not named; cynomolgus monkey IL-21.
Test [15] concerns the target T1, human IL-21. In words: assay not named; human IL-21.
For test [16], the target named is T1, human IL-21. Kind of test: assay not named.

T2 sequence (Q9HBE4 other isoform, or with tags, fused parts or gaps): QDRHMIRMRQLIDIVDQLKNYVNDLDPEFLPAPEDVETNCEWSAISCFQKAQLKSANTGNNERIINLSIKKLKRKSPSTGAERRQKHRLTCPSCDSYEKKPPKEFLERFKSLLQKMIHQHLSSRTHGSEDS
T1 sequence (Q9HBE4 32-162): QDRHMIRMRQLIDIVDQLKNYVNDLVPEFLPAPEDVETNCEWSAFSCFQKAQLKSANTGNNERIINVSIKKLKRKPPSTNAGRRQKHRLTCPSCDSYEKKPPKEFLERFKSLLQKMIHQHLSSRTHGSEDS
Chain of rat IL-21 (A3QPB9 18-146): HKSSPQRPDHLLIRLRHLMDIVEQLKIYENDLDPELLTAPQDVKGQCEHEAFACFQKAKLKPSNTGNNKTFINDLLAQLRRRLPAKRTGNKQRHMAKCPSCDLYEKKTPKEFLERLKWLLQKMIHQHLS
Chain of human IL-9 (P15248 19-144 limits assumed): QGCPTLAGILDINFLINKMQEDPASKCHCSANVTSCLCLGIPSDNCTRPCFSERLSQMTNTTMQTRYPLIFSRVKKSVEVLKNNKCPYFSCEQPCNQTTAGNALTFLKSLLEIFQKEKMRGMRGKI
Chain of human IL-2 (P60568 21-153 limits assumed): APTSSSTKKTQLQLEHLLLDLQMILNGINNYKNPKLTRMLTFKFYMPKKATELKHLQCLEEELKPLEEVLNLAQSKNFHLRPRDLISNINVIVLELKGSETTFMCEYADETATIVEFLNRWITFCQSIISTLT

B1: Ab327 (antibody, human IgG4 S228P, kappa, F234A L235A, V domains shown)
VH: QVQLVQSGAEVKKPGASVKVSCKASGYTFTDYWMHWVRQAPGQGLEWMGLIDTSDVYTIYNQKFKGRVTMTRDTSTSTVYMELSSLRSEDTAVYYCARYGPLAMDYWGQGTLVTVSS
VL: DIQMTQSPSSLSASVGDRVTITCRASQDISNYLNWYQQKPGKAPKLLIYYTSRLHSGVPSRFSGSGSGTDFTLTISSLQPEDFATYYCQQFHTLRTFGGGTKVEIKR
modifications: N-linked glycosylation site at Asn294 of SEQ ID NO:3 may be glycosylated
notes: Engineered, humanized IgG4 (S225P, F231A/L232A) kappa antibody; expressed in HEK293 or CHO cells; also called final engineered humanized antibody; IL-21 antibody
B1: the “IC50, IM9 pan-STAT-luciferase reporter assay, IL-21 at 66.67 pM” value worked out at 46.7 pM in [1] and 48.3 pM in test [2]. Further, the binding result in test [3], in test [4], in test [5], in [6] and in [7] was “no binding (tested: 100 nM)” in each case. In [8], the “IC50, IL-21-induced proliferation of primary human B cells (3H-thymidine uptake)” value amounted to 1150 pM. In addition, the equilibrium dissociation constant (Kd) – broadly, the concentration at which binding is half-saturated – in test [9] was 0.8 pM; in test [10], 240000 pM; in test [11], 0.3 pM; in test [12], 230000 pM; in [14], about 0.5 pM; in test [15] it was about 0.5 pM. In [13], the “fold increase of plasma cells (CD38 high, IgD low), donor 1, 26.7 nM antibody (IL-21 without antibody: 176)” value came out at 11.7 fold. For the same molecule, in [13], the “fold increase of plasma cells (CD38 high, IgD low), donor 2, 26.7 nM antibody (IL-21 without antibody: 114)” value came to 3.38 fold. For the same molecule, the “fold increase of plasma cells (CD38 high, IgD low), donor 3, 26.7 nM antibody (IL-21 without antibody: 47)” value in test [13] was 7.81 fold. Also, the “fold increase of plasma cells (CD38 high, IgD low), donor 4, 26.7 nM antibody (IL-21 without antibody: 68)” value in [13] is 6.87 fold. In addition, in [13], the “fold increase of plasma cells (CD38 high, IgD low), donor 5, 26.7 nM antibody (IL-21 without antibody: 22)” value amounted to 3.64 fold.

B2: humanized antibody with CDRs derived from antibody 15M2, utilizing the 1-46 heavy chain human framework and O2 human light chain framework (antibody, V domains shown)
VH: B1 VH with V56S
VL: DIQMTQSPSSLSASVGDRVTITCRASQDISNYLNWYQQKPGKAPKLLIYYTSRLHSGVPSRFSGSGSGTDFTLTISSLQPEDFATYYCQQFNTLRTFGGGTKVEIK
notes: Human IgG4 expression vectors; also called the humanized antibody
Consider B2, for which, in test [16], the Kd is about 0.5 pM.

B3: engineered antibody containing both heavy chain Asp55Glu and light chain Asn92His mutations (antibody, V domains shown)
VH: B1 VH with D55E, V56S
VL: B2 VL with N92H
notes: Human IgG4
For B3, the Kd in test [14] and in [15] was about 2 pM in each case.
